Reference: patent US5885961A, “Methods of using epithelins to modulate cell proliferation” (Bristol-Myers Squibb Company, priority 1995, dated 1999)
“Also recorded” adds a separate entry of the source. Like-named read-outs stand apart in the source and are kept apart here. Values belong to the molecule of their own block, whether it stands above or below them.

Assays:
NRK-SA6 cells = assay: Soft agar colony assay in the presence of TGFβ; type: cell-based, rat; settings: in the presence of TGFβ 1 ng/ml, FIG. 17
Method: FIG. 17. Effect of epithelin 1 and 2 on NRK-SA6 cell colony formation in soft agar in the presence of TFGβ (1 ng/ml). The colony formation assay used is described in Section 6.2.3, infra. Solid bars, epithelin 1; stippled bar, epidermal growth factor; open bar, epithelin 2; hatched bar, 20 ng/ml epithelin 1 plus 500 ng/ml epithelin 2.
A 0.38 ml base layer of 0.5% agar (Agar Noble; Difco Laboratories, Detroit, Mich.) in DMEM containing 10% heat inactivated FBS was added to 24 well Costar tissue culture plates. 0.38 ml of 0.3% agar containing the same medium-FBS mixture, 6-12×10^3 test cells, and the test proteins at various concentrations were overlaid on the basal layer of agar. The plates were incubated at 37° C. in a humidified atmosphere of 5% CO2 in air. Colonies were enumerated unfixed and unstained, and the number of colonies was scored between days 7 and 10. Colonies were defined as a cluster of at least eight cells.

[1] = test system: A431 human epidermoid carcinoma cells; assay: Cell growth inhibitory activity (GIA), 125I-deoxyuridine incorporation into DNA; type: cell-based; settings: for potency relative to epithelin 2 in inhibiting A431 cells: epithelin 1 vs epithelin 2
Method: The cell growth inhibitory activity (GIA) assays were performed in flat-bottom 96 well plates (Falcon 3072). Human epidermoid carcinoma of vulva cells (A431) were used as test cells for GIA. 3.5×10^3 cells in 50 μl of test medium (DMEM supplemented with 5% heat inactivated fetal bovine serum (FBS), penicillin/streptomycin (PS) and glutamine) were placed in all wells except peripheral wells. The peripheral wells received 50 μl PBS. Three hours later, 50 μl of test sample in test medium was added to each well, while control wells received only 50 μl of test medium. Three wells were used for each concentration of test sample. Plates were incubated at 37° C. for 2-3 days. Then, 100 μl of a solution of […] (^125 I-IUdR, 4Ci/mg-0.5 mCi/ml, 2 μl/ml in test medium) was added to each well and plates were incubated at 37° C. After 4-6 hours, the medium was aspirated from the wells, which were then washed once with 200 μl PBS. Then, 200 μl methanol was added to each well, plates were incubated for 10 minutes at room temperature, and the methanol was removed by aspiration. 200 μl of 1M sodium hydroxide was added to each well, the plates were incubated for 30 minutes at 37° C. Sodium hydroxide was removed with titertek plugs (Flow Labs). The plugs were transferred into 12×75 mm plastic tubes and counted in a gamma counter to quantify ^125 I-IUdR incorporation.

Balb/MK cells [2] = assay: Murine keratinocyte growth assay (cell count); type: cell-based; settings: FIG. 16A
Method: FIG. 16(A-B). (FIG. 16A) Effect of epithelin 1 and epidermal growth factor (EGF) on the growth of Balb/MK cells. Assays were performed as described in Section 6.2., infra. .circle-solid., epithelin 1; o, EGF (FIG. 16B) Effect of various concentrations of epithelin 2 on the epithelin 1 (20 ng/ml) induced growth of murine keratinocytes.
Balb/MK cells were plated at 1×10^4 cells per well in 1 ml of low calcium medium (Weissman and Aaronson, 1983, Cell 32:599-606; Carpenter and Zendegut, 1985, Anal. Biochem. 153:279-282) in 24-well Costar plates and incubated at 37° C. for 4-6 hours. Then media were removed and replaced with 1 ml of medium containing various concentrations of the test compound in triplicate. The control wells received only medium without any test material. The plates were incubated at 37° C. for 4 days, then medium was removed, wells were rinsed two times with 1 ml of phosphate-buffered saline, and the cells were detached with trypsin-EDTA and counted.

monkey kidney COS1 cells = assay: 125I-deoxyuridine incorporation into DNA, COS1; type: cell-based
NRK cells = assay: Mitogenic activity on NRK cells in monolayer; type: cell-based, rat
Balb/MK cells [3] = assay: Growth stimulatory activity (GSA), 125I-deoxyuridine incorporation into DNA of murine keratinocytes; type: cell-based; settings: FIG. 15A
Method: FIG. 15(A-B). (FIG. 15A) Effect of epithelin 1 and epithelin 2 on the stimulation of ^125 I-deoxyuridine incorporation into DNA of the murine keratinocyte cell line Balb/MK. 2,000-4,000 cells were plated per well in 96 well plates in low-calcium medium containing 5% dialyzed FBS. Then GSA assays were performed as described in Section 6.2., infra. .circle-solid., epithelin 1; o, epithelin 2. (FIG. 15B) Effect of various concentrations of epithelin 2 on epithelin 1 (20 ng/ml) elicited incorporation of ^125 I-deoxyuridine into DNA of Balb/MK cells.
Balb/MK cells were also used as indicator cells in 96 well plates to assess the growth inhibitory activity (GIA) or growth stimulatory activity (GSA) of a test material using ^125 I-deoxyuridine incorporation into DNA as described in the previous section.

[4] = Resistance of bioactivity to chemical, heat and enzyme treatment; type: physicochemical
Method: Epithelin 1 and epithelin 2 are resistant to treatment with 1M acetic acid, 1M ammonium hydroxide, 6M urea, 0.01M sodium metaperiodate, to heating at 56° C. for 30 minutes, and to treatment with various glycosidases or lipases. However, epithelin activity was sensitive to reduction, to reduction and 4-vinylpyridine treatment, and to digestion with proteinases such as trypsin, endoproteinase Lys-C, and endoproteinase Glu-C (V8).

[5] = test system: human colon carcinoma cell line HCT 116; assay: 125I-deoxyuridine incorporation into DNA, HCT 116; type: cell-based; settings: maximum dose tested: 20 ng/ml epithelin 1, 270 ng/ml epithelin 2
EGF receptors = EGF receptors (Homo sapiens, UniProt P00533); assay: Binding of 125I-EGF to its receptors
[6] = test system: human fibroblasts and several other human tumor cells; assay: 125I-deoxyuridine incorporation into DNA, human fibroblasts and other human tumor cells; type: cell-based; settings: maximum dose tested: 20 ng/ml epithelin 1, 270 ng/ml epithelin 2
mink lung CCL 64 cells = assay: 125I-deoxyuridine incorporation into DNA, CCL 64; type: cell-based

B1: epithelin precursor: unprocessed 589-residue rat preprotein (SEQ ID NO:2) with 7 cysteine-rich motifs, expressed in COS cells (protein)
chain: MWILVSWLALVARLVAGTQCPDGQFCPVACCLDQGGANYSCCNPLLDTWPIITSRRLDGSCQIRDHCPDGYSCLLTVSGTSSCCPFSEGVSCDDGQHCCPRGFHCSADGKSCSQISDSLLGAVQCPGSQFECPDSATCCIMIDGSWGCCPMPQASCCEDRVHCCPHGASCDLVHTRCISPTGTHPLLKKFPAQRTNRAVAFPFSVVCPDAKTQCPDDSTCCELPTGKYGCCPMPNAICCSDHLHCCPQDTVCDLIQSKCISKDYTTDLMTKLPGYPVNEVKCDLEVSCPDGYTCCRLNTGAWGCCPFTKAVCCEDHIHCCPAGFQCHTETGTCELGVLQVPWMKKVTASLSLPDPQILKNDVPCDDFSSCPSNNTCCRLSSGDWGCCPIPEAVCCLDHQHCCPQGFKCMDEGYCQKGDRMVAGLEKMPVRQTTLLQHGDIGCDQHTSCPVGQTCCPSLKGSWACCQLPHAVCCEDRQHCCPAGYTCNVKARTCEKDAGSVQPSMDLTFGSKVGNVECGAGHFCHDNQSCCKDSQGGWACCPYVKGVCCRDGRHCCPIGFHCSAKGTKCLRKKTPRWDILLRDPAPRPLL
- anchorage-independent growth (colony formation in soft agar) of NRK cells (NRK-SA6 cells): no activity
- effect on A431 cells [1]: no activity
- effect on growth of Balb/MK cells (rodent keratinocytes) (Balb/MK cells [2]): no activity

- IC50 ([1]; A431 cells, read-out: concentration for 50% inhibition of 125I-deoxyuridine incorporation): ~21 nM
B2: epithelin 1: single chain polypeptide of 56 amino acid residues, 12 cysteines, purified from rat kidney; also expressed recombinantly in COS cells (protein)
chain: LPGYPVNEVKCDLEVSCPDGYTCCRLNTGAWGCCPFTKAVCCEDHIHCCPAGFQCHTETGTCEL
- anchorage-independent growth (colony formation in soft agar) of NRK cells (NRK-SA6 cells): induced the anchorage-independent growth of NRK cells in a dose-dependent manner; also recorded: can induce anchorage-independent growth
- effect on A431 cells [1]: inhibitory effect
- 50% inhibition of DNA synthesis (125I-deoxyuridine incorporation) ([1]; A431 cells, purified protein, FIG. 14): 12.8 ng/well
- potency relative to epithelin 2 in inhibiting A431 cells [1]: ~36 times
- potency relative to epithelin 2 in inhibiting A431 cells ([1]; listed as Epithelin 1): about 36 times
- Specific Activity ([1]; final purification step Anal. Tsk-250, pool 1b): 20,609 Units/mg
- Specific Activity ([1]; final purification step Anal. Tsk-250, pool 2b): 21,048 Units/mg
- specific activity of purified protein (GIA) ([1]; one unit = amount inhibiting 125I-deoxyuridine incorporation into A431 cells by 50%): about 2.1×10^4 units/mg protein
- calculated specific activity relative to epithelin 2 ([1]; purified proteins): ten
- growth inhibitory activity secreted by transfected COS cells ([1]; recombinant, supernatant of cβrEPN1 transfection partially purified on TSK-250, A431 cells): approximately 25 GIA units/100 mm plate
- effect on 125I-deoxyuridine incorporation into DNA (monkey kidney COS1 cells): significantly inhibited
- mitogenic activity on NRK cells in monolayer (NRK cells): exhibited mitogenic activity
- effect on 125I-deoxyuridine incorporation into DNA of Balb/MK cells (Balb/MK cells [3]): stimulated the ^125 I-deoxyuridine incorporation in a dose-dependent manner
- effect on growth of Balb/MK cells (rodent keratinocytes) (Balb/MK cells [2]): did not proliferate in the absence of EGF or epithelin 1
- resistance to 1M acetic acid, 1M ammonium hydroxide, 6M urea, 0.01M sodium metaperiodate, heating at 56° C. for 30 minutes, glycosidases or lipases [4]: stable
- sensitivity of activity to reduction, reduction and 4-vinylpyridine treatment, and proteinases (trypsin, Lys-C, Glu-C) [4]: sensitive
- resistance to 1M acetic acid, 1M ammonium hydroxide, 6M urea, 0.01M sodium metaperiodate, heating at 56° C. for 30 minutes, glycosidases or lipases ([4]; listed as Epithelin 1): resistant
- effect on growth of HCT 116 cells [5]: slighly inhibited
- effect on binding of 125I-EGF to its receptors (EGF receptors): Neither epithelin 1 nor epithelin 2 significantly affected the binding
- effect on human fibroblasts and several other human tumor cells [6]: Neither protein exhibited any significant effect
- effect on 125I-deoxyuridine incorporation into DNA (mink lung CCL 64 cells): significantly inhibited
